Data from patent US20060263802A1.

How the values were obtained:
[1] = biological target: linear peptide … (rabies virus strain ERA); experiment: PEPSCAN ELISA, linear peptide, antibody 10 µg/ml
[2] = biological target: linear peptide … (rabies virus strain ERA); experiment: PEPSCAN ELISA, linear peptide, 10 µg/ml

B1: human monoclonal antibody CRJA (antibody, V domains shown)
VH: EVQLLESGGGLVQPGGSLRLSCAASGFTFSNYAMSWVRQAPGKGLEWVSAISASGHSTYLADSVKGRFTISRDNSKNTLYLQMNSLRAEDTAVYYCAKDREVTMIVVLNGGFDYWGQGTRVTVSS
VL: EIVLTQSPATLSLSPGERATLACRASQTASRYLAWYQQKPGQAPRLLIYDTSNRATGIPARFSGSGSGTDFTLSISSLEPEDFAVYYCQQRFNWPWTFGQGTKVEFK
- OD value [1]: 1030
- OD [2]: 96 OD

B2: human monoclonal antibody CR57 (antibody, V domains shown)
VH: QVQLVQSGAEVKKPGSSVKVSCKASGGTFNRYTVNWVRQAPGQGLEWMGGIIPIFGTANYAQRFQGRLTITADESTSTAYMELSSLRSDDTAVYFCARENLDNSGTYYYFSGWFDPWGQGTLVTVSS
VL: QSALTQPRSVSGSPGQSVTISCTGTSSDIGGYNFVSWYQQHPGKAPKLMIYDATKRPSGVPDRFSGSKSGNTASLTISGLQAEDEADYYCCSYAGDYTPGVVFGGGTKLTVL
- OD value [1]: 364
